Source: the nanobody polyreactivity screen of Harvey et al. (2022)

Experiment: yeast display, Sf9 membrane polyspecificity reagent, FACS + sequencing; frameworks hold sequencing errors
Outline: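 A nanobody's polyreactivity label depends on the gate it was sorted from. Yeast display cells were stained with 10% biotinylated, detergent-solubilized Sf9 membrane reagent for 1 hour at 4 °C, enriched on streptavidin microbeads and sorted by FACS. The low and high (top ~1%) gates were set on anti-HA fluorescence for expression and streptavidin fluorescence for reagent binding.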

Sequence | polyreactivity (PSR sort gate)
QVQLVESGGGLVQAGGSLRLSCAASGFIFTSYAMGWYRQAPGKERELVATISSSGGSTTYADSVKGRFTISRDNAKNTVYLQMNSLKPEDTAVYYCAAAVYVVRYVSLYRRYYWGQGTQVTVSS | high polyreactivity
QVQLVESGGGLVQAGGSLRLSCAASGSIFVPYAMGWYRQAPGKERELVAAITRSSGSTYYADSVKGRFTISRDNAKNTVYLQMNSLKPEDTAVYYCAADFLLEFDYWGQGTQVTVSS | low polyreactivity
QVQLVESGGGLVQAGGSLRLSCAAYGRTFNDYAMGWYRQAPGKERELVAAIDSDGDTNYADSVKGRFTISRDNAKNTVYLQMNSLKPEDTAVFYCNAVRLVVQEWYYYFTFDYWGQGTQVTVSS | low polyreactivity
QVQLVESGGGLVQAGGSLRLSCAASGSTFNINAMGWYRQAPGKERELVADITSGGSTNYADSVKGRFTISRDNAKNTVYLQMNSLKPEDTAVYYCNADVLYGDSYRGGYCGQGTQVTVSS | low polyreactivity
QVQLVESGGGLVQAGGSLRLSCAASGITFDYYAMGWYRQAPGKERELVASISSDSSTYYADSVKGRFTISRDNAKNTVYLQMNSLKPEDTAVYYCNAGDSEYTYYGYYAFDYWGQGSQVTVSS | low polyreactivity
QVQLQESGGGLVRAGGSLRLSCAASGYISTSIAMGWYRQAPGKERELVASFGGGAITNYADSVKGFTISRDNGKNTVYLQMNCLKPEDTAVYYFAVYHGDRGYYSYWGQGTQVTVSS | low polyreactivity
QVQLVESGGGLVQAGGSLRLSCAASGFTFRTNVMGWYRQAPGKERELVAVITRDGGSTYYADSVKGRFTISRDNAKNTVYLQMNSLKPEDTAVYYCNAAAFINFILYDYWGQGTQVTVSS | high polyreactivity
QVQLVESGGGLVQAGGSLRLSCAASGSTSDINAMGWYRQAPGKERELVAAITSRSGSTYYADSVKGRFTISRDNAKNTVYLQMNSLKPEDTAVYYCAAEYVRFYWYTSDYWGQGTQVTVSS | low polyreactivity
QVQLVESGGGLVQAGGSLRLSCAASGRIFDRNAMGWYRQAPGKERELVARISRTGGSTYYADSVKGRFTISRDNAKNTVYLQMNSLKPEDTAVYYCAASRGGGYDYWGQGTQVTVSS | high polyreactivity
QDQLVESGGGLVQAGGSLRLSCAASGSIFGGYGMGWYRQAPGKERELVAAITSGSSTYYADSVKGRFTISRDNAKNTVYLQMNSLKPEDTAVYYCAARPYPHSAYQGDYWGRGTQVTVSS | low polyreactivity
QVQLVESGGGLVQAGGSLRLSCAASVSTFVLYAMGWYRQAPGKERELVAVISWSGGSTYYADSVKGRFTISRDNAKNTVYLQMNSLKPEDTAVYYCAADSTWEGGYKYEYWGQGTQVTVSS | low polyreactivity
QVQLVESGGGLVQGGGSLRLSCASSGNTFYYYAMGWYRQAPGKERELVAAITRGGSTNYADSVKGRFTISRDNAKNTVYLEMISLKPEDTSVYYCAAEQRAPRFADYDYWGQGTQVTVSS | low polyreactivity
QVHLVESGGGLVQAGGILRLSCAASGRTFRRYAMGWYRQAPGKERELVAVISGGGTYYADSVKGRFTISRDNAKNTVYLQMNSLKPEDTAVYYCNARSYQSARVRGGYWGQGTQVTVSS | high polyreactivity
QVQHVESGGGLVQAGGSLRLTCAASGSTSPTNVMGWYRQAPGKERELVAAISYSGGRTYYADSVKGRFTISRDNAKKTVYLQMNSLKPEDTAVYYCAARSLKRKYESWGQGTQVTVSS | high polyreactivity
QVQLVESGGGLVQAGGSLRLSCAASGIIFRGYAMGWYRQAPGKERELVAAISKSGGSTYYADSVKGRFTISRDNAKNTVYLQMNSLKPEDTAVYYCAADVYKQYGYYYWGQGTQVTVSS | high polyreactivity
QVQLVESGGGLVQAGGSLRLSCAASGSISWYYAMGWYRQAPGKERELVAAISDSGGDTYYADSVKGRFTISRDNAKNTVYLQMNSLKPEDTAVYYCATDTAYWLWVYALLEYWGQGTQVTVSS | low polyreactivity
QVQLVETGGGIVQAGGSLRLRCAAAGRHCYHNVMGWYRQAPGKERELVAGIRSRGGSTSYADSVKGRFTISRDNSKNTVYLQMNSLKPEDTAVYYCATDTTLWYVLYDYWGQGTQVTVSS | low polyreactivity
QVQLVESGGGLVKAGGILSLSCAASGRTFAFYGMGSYRQAPGKERELVATIRGTGGSTYYADSVKGRFTISRDNAKNTVYLQMNSLKPEDTAVYYCAAVNRRYPRYDYWGLGTQVTVSS | high polyreactivity
QVQLVESGGGLVQAGGSLRLSCAASGRTFGINAMGWYRPAPGKERELVAAIRTGGSTYYADSVKGRFTISRDNAKNTVYLQMNSLKPEDTAVFYCAAVLYHNRKTEYTYGYWGQGTQVTVSS | high polyreactivity
QVQLVESGGGLVQAGGSRRLSCAASGRTFPYNAMGWYRQATGKERELVATNDSSGTRTFYADSVKGRFTISRDNAKNTVYLQLNRLKPEDNAVYYCAAGIIYSNETNITSYDYWGQGTQVTVSS | low polyreactivity
QFQLVESGGGLVQAGGSLLLSCAASGTFGVYAMGWYRQAPGKERELVAVITDSGGTNYADSVKGRFTISRDNAKNTVFLQMNSLKPEDTAVYYCNTDAGDYYGENYWGQGTQVTVSS | low polyreactivity
QVQLVESGGGLVQAGGSLRLSCAASGRIFFYNDMGWYRQAPGKERELVASISSGTSTYYADSVKGRFTISRDNAKNTVYLQMNSLKPEDTAVYYCATGRPWHYSSATYDYWGQGTQVSVSS | low polyreactivity

Sequence | polyreactivity (PSR sort gate)
QVQLVESGGGLVQAGGSLSLTCAASGIIFSYNAMGWYRQATGKERELVAAISWSGGSTYYADSVKGRFTISRDNAKNTVYLQMNSLKPEDTAVYYCNAPYLIRFKRLGDNWGQGTQVTVSS | high polyreactivity
QVQLVESGGGLVQAGGSLRLSCAASGRIFWYVLGWYRQAPGNERELVATITSSGGSSYYADSVKGRFTISRDNAKNTVYLQMNSLKPEDTAVNYCAVDLQTLGADRIITVYVGEDYWGQGTQVTVSS | low polyreactivity
QVQLVESGGGLVQAGGSLRLSSAASGSIFYYYAMGWYRQAPGKARELVATINISDGSTYYAVSVKGRFTISRDNAKNTVYLQMNSLKPEDTAVYYCAAYYYFQDYDYWGQGTQVTVSS | low polyreactivity
QVQLVESGGGLVQAGGSLRLSCAASGLTFGRYAMGWYRQAPGKERELVAAITARVGRTYYADSVKGRFTISRDNAKNTVYLQMNSLKPEDTAVYYCAAGPSYYWYSHEKYDYWGQGTQVTVSS | high polyreactivity
QVQLVESGGGLVQAGGSLRLSCAASGRTFRSYVMGWYRQAPGKERELVAAITRSGGSTYYADSVKGRFTISRDNAKNTVYLQMNSLKPEDTAVYYCATDRWYYYPDYYPYGEYDYWGQGTQVTVSS | low polyreactivity
QLQLLESAVGLVQAGGSLRLSCASSGRIFTQNTMGWYRQAPAKESELVAAINYSGGRTNYADSVKGRFTISRDNAKNTVYLQMNSLKPEDTAVYYCAAGYRRATYGYWGQGTQVTVSS | high polyreactivity
QDQLVDSGGGLLQAGGSLRLSCAASGSTLSKYAMGWNRQAPGKERELVAAISQRGGSTYYADSVKGRFTISRDNAKYTVYLQMNSLKPEDTAVSYCNALQRRYGYWGQGTQVTESS | high polyreactivity
QVQLVESGGGLVQAGGSLRLSCAASGLIFTGNTMGWSRQAPGKETELVADITWSDGSTYYADSVKGRFTISRDTENNTVYLQMNSLKPEDTAVYYCAADSVLDRPVLYLWPWYLGDYWGQGTQVTVSS | low polyreactivity
QDQLVESVGGLVQAGGSLRLSCAPTGSTFYGYGLAWSRQSPGKARELVAAITGSGDTTYYADSVKGRFTISRDYANNTVYLQMNSLKPEDTAVYYCNARWHAEYDYWGQGTQVTVSS | low polyreactivity
QVQLVESGGGLVQAGGSLRLSCAASGLTFWGNTMGWYRQAPGKERELVAAISSGGITYYADSVKGRFTISRDNANNTVYLLMNSLKPEETAVYYCIGVFSFVPHEMDYWGLGTQVTVSS | high polyreactivity
QVQLVESGGGLVQAGGSLRLSCAASGSTIVVYAMGWYRQAPGKARELVAAITTSDDSTYYADSVKGRFTISRDNAKNTVYLQMNSLKPEDTAVYYCAATLRWQDGYSGQGTQVTVSS | low polyreactivity
QVQLVESGGGLVQAGGSLRLSCAASGRTFRYYAMGWYRPAPGKERELVAAITSGGSTYYADSVKGRFTISRDNAKNTVYLQMNSLKPEDTAVYYCNKDFTRTWTRHGDDYWGQGTQVTVSS | high polyreactivity
QVQLVESGGGLVQAGGSLRLSCAASGRILYDYDMGWYRQAPGKERELVATISRGGGTNYADSVKGRFTISRDNAKNTVYLQMNSLKPEDTAVYYCAADRWYSRYTRYGYWGQGTQVTVSS | low polyreactivity
QVQLVESGGGLVQAGGSLRLSCAASGRTFDWYVMGWYRQAPGKERELVASIPGTGSTYYADSVKGRFTISRDNAKNTVYLQMNSLKPEDTAVYYCNVAWIWGKYDYWGQGTQVTVSS | high polyreactivity
QVQLVESGGGLVQAGGSLRLSCAASGSIFNWNTMGWYRQAPGKERELVAAITYDGGTTYYADSVKGRFTISRDNAKNTVYLQMNSLKPEDTAVYYCAAEFLYKYGRYDYWGQGTQVTVSS | high polyreactivity
QVQLVESGGGLVQAGGSLRLSCAASGSTFKFNAMGWYRQAPGKEREFVAAITSSGDSTYYADSVKGRFTISRDNAKNTVYLQMNCLKPEDTAVYYCAAEFESSFALGFYYWGQGTEVTVSS | high polyreactivity
QVQLVESGGGLVQAGGSLRLSCAASGRTSYGYAMGWYRQAPGKERDLFAAITYGGGSTYYADTVKGRFTISRDNANNTVYLQMNSLIPEDTALYYCAADRTGSTLYTISYYYWGQGTQVTVSS | low polyreactivity
QVQLVESGGGLVHAGGSLRLSCSASGYTFAYNAMGWYRQAPGKERELVAAITSRAGSTHYADSVKGRFTISRDNAKNTVYLQMNSLKPEDTAVYYCAAKRYNRLRSYRYSDREDYWGQGTQVSVSS | high polyreactivity
QVQLVESGGGLVQAGGSLRLSCAASGSIFPWNAMGWYRQAPGKERELVAAISRGGSTNYADSVKGRFTISRDNAKNTVYLQMNSLKPEDTAVYYCAVYYYSYHWGRGYDYWGQGTQVTVSS | high polyreactivity
QVQLVESGGGLVQAGGSLRLSCAASGRIFYSYAMGWYRQAPGKEREFVAAIRWSGGRTYYADSVKGRFTISRDNAKNTVYLQMNSLKPEDTAVYYCAAELYGNNFWDGTTGYDYWGQGTEVTVSS | low polyreactivity
QVQLVEAGRGLVHAGCSLRLSCASSGNIFANYSMGWYRQAPGKERELVAAIRWSASRTYYADSVKGRFTISRDNAMNTVYLQMNSLKPEDTAVYYCAATIDTLWDYYYDYWGQGSQVTVSS | high polyreactivity
